Measurements from the supplement of paper PMC9112550, “Optimization of the antimicrobial peptide Bac7 by deep mutational scanning” (BMC Biology, 2022).

test system: Escherichia coli TOP10; experiment: shrunken log2 fold change of peptide-encoding DNA abundance (4.5 h post-induction vs induction); higher = less antimicrobial activity (less host growth inhibition); details: time post-induction: 4.5 h; library: site-saturation at positions 5, 18, 19, 20
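Also: peptides expressed intracellularly from a pBAD plasmid library in pooled LB shake-flask culture, induced with 0.3% L-arabinose, DNA abundance read by NGS, three biological replicates, DESeq2 with apeglm shrinkage.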

| Sequence | shrunken log2 fold change |
| --- | --- |
| RRIRHRPPRLPRPRPRPCLQPRP | -0.148 |
| RRIRHRPPRLPRPRPRPLPPPRP | 0.196 |
| RRIRTRPPRLPRPRPRPAFQPRP | 0.125 |
| RRIRWRPPRLPRPRPRPALVPRP | 0.98 |
| RRIRFRPPRLPRPRPRPDKWPRP | 0.0538 |
| RRIRTRPPRLPRPRPRPNKEPRP | -0.00295 |
| RRIRRRPPRLPRPRPRPEQRPRP | 0.272 |
| RRIRRRPPRLPRPRPRPTKCPRP | 0.114 |
| RRIRGRPPRLPRPRPRPGIHPRP | 0.251 |
| RRIRMRPPRLPRPRPRPMPRPRP | 0.561 |
| RRIRKRPPRLPRPRPRPFRTPRP | 0.000407 |
| RRIRLRPPRLPRPRPRPTPMPRP | 0.143 |
| RRIRRRPPRLPRPRPRPSVIPRP | -0.00654 |
| RRIRYRPPRLPRPRPRPQIGPRP | 0.00262 |
| RRIRTRPPRLPRPRPRPPTEPRP | 0.498 |
| RRIRRRPPRLPRPRPRPMKYPRP | 0.00758 |
| RRIRARPPRLPRPRPRPMSWPRP | 0.399 |
| RRIRTRPPRLPRPRPRPIWAPRP | -0.085 |
| RRIRIRPPRLPRPRPRPPNKPRP | -0.36 |
| RRIRCRPPRLPRPRPRPMMVPRP | -0.659 |
| RRIRRRPPRLPRPRPRPAAEPRP | 0.845 |
| RRIRDRPPRLPRPRPRPEVGPRP | 0.00896 |

| Sequence | shrunken log2 fold change |
| --- | --- |
| RRIRWRPPRLPRPRPRPDDKPRP | -0.139 |
| RRIRERPPRLPRPRPRPRDAPRP | 0.446 |
| RRIRERPPRLPRPRPRPIIKPRP | -0.703 |
| RRIRMRPPRLPRPRPRPLPTPRP | 1.36 |
| RRIRQRPPRLPRPRPRPHIFPRP | 0.0297 |
| RRIRWRPPRLPRPRPRPCRSPRP | 0.0427 |
| RRIRARPPRLPRPRPRPKVAPRP | 0.698 |
| RRIRERPPRLPRPRPRPRELPRP | 0.569 |
| RRIRSRPPRLPRPRPRPIKLPRP | 0.0994 |
| RRIRIRPPRLPRPRPRPHNDPRP | -0.55 |
| RRIRQRPPRLPRPRPRPYPFPRP | -0.035 |
| RRIRPRPPRLPRPRPRPHNHPRP | -0.609 |
| RRIRERPPRLPRPRPRPYAGPRP | -0.000921 |
| RRIRTRPPRLPRPRPRPVIFPRP | -0.335 |
| RRIRYRPPRLPRPRPRPLSIPRP | -0.129 |
| RRIRYRPPRLPRPRPRPWSCPRP | -0.171 |
| RRIRFRPPRLPRPRPRPPCVPRP | 0.0878 |
| RRIRIRPPRLPRPRPRPNKNPRP | -0.701 |
| RRIRLRPPRLPRPRPRPLEPPRP | 0.0493 |
| RRIRSRPPRLPRPRPRPHLQPRP | 0.0575 |
| RRIRCRPPRLPRPRPRPKALPRP | 0.0255 |
| RRIRMRPPRLPRPRPRPDYFPRP | -0.121 |

| Sequence | shrunken log2 fold change |
| --- | --- |
| RRIRARPPRLPRPRPRPMSTPRP | -0.0262 |
| RRIRCRPPRLPRPRPRPEADPRP | 0.819 |
| RRIRRRPPRLPRPRPRPRILPRP | -0.143 |
| RRIRLRPPRLPRPRPRPCVSPRP | -0.108 |
| RRIRQRPPRLPRPRPRPAKAPRP | -0.101 |
| RRIRIRPPRLPRPRPRPRFIPRP | -0.636 |
| RRIRKRPPRLPRPRPRPTAMPRP | 0.358 |
| RRIRHRPPRLPRPRPRPSIIPRP | -0.237 |
| RRIRTRPPRLPRPRPRPYTEPRP | -0.267 |
| RRIRWRPPRLPRPRPRPDTPPRP | 0.126 |
| RRIRLRPPRLPRPRPRPFVPPRP | -0.162 |
| RRIRPRPPRLPRPRPRPRMKPRP | -0.285 |
| RRIRCRPPRLPRPRPRPDAEPRP | 1.03 |
| RRIRVRPPRLPRPRPRPQYCPRP | -0.095 |
| RRIRSRPPRLPRPRPRPKNDPRP | -0.372 |
| RRIRKRPPRLPRPRPRPIMFPRP | -0.21 |
| RRIRIRPPRLPRPRPRPGERPRP | -0.0896 |
| RRIRWRPPRLPRPRPRPAKYPRP | -0.183 |
| RRIRTRPPRLPRPRPRPIFQPRP | -0.192 |
| RRIRERPPRLPRPRPRPCRGPRP | 0.0764 |
| RRIRSRPPRLPRPRPRPIRIPRP | -0.405 |
| RRIRCRPPRLPRPRPRPGNTPRP | -0.205 |

| Sequence | shrunken log2 fold change |
| --- | --- |
| RRIRDRPPRLPRPRPRPDQLPRP | 0.0963 |
| RRIRDRPPRLPRPRPRPHIQPRP | -0.53 |
| RRIRSRPPRLPRPRPRPYKIPRP | -0.846 |
| RRIRKRPPRLPRPRPRPQSDPRP | 0.247 |
| RRIRCRPPRLPRPRPRPNMMPRP | -0.475 |
| RRIRQRPPRLPRPRPRPDYLPRP | -0.212 |
| RRIRYRPPRLPRPRPRPDWMPRP | 0.0748 |
| RRIRLRPPRLPRPRPRPETVPRP | 0.0594 |
| RRIRHRPPRLPRPRPRPKCLPRP | -0.25 |
| RRIRYRPPRLPRPRPRPCHLPRP | -0.019 |
| RRIRVRPPRLPRPRPRPATLPRP | -0.00452 |
| RRIRPRPPRLPRPRPRPGQTPRP | -0.00112 |
| RRIRVRPPRLPRPRPRPTQQPRP | 0.346 |
| RRIRWRPPRLPRPRPRPRMPPRP | 0.395 |
| RRIRRRPPRLPRPRPRPGTSPRP | 0.0636 |
| RRIRTRPPRLPRPRPRPHRQPRP | -0.256 |
| RRIRVRPPRLPRPRPRPGHSPRP | -0.195 |
| RRIRGRPPRLPRPRPRPLCDPRP | 0.778 |
| RRIRIRPPRLPRPRPRPLHTPRP | -0.456 |
| RRIRQRPPRLPRPRPRPACQPRP | 0.15 |
| RRIRYRPPRLPRPRPRPQWYPRP | -0.118 |
| RRIRKRPPRLPRPRPRPSIVPRP | -0.059 |

| Sequence | shrunken log2 fold change |
| --- | --- |
| RRIRIRPPRLPRPRPRPFPFPRP | -1.39 |
| RRIRDRPPRLPRPRPRPYKSPRP | -0.106 |
| RRIRTRPPRLPRPRPRPVMRPRP | -0.0406 |
| RRIRWRPPRLPRPRPRPMWTPRP | 0.171 |
| RRIRSRPPRLPRPRPRPGNCPRP | -0.0261 |
| RRIRWRPPRLPRPRPRPTPPPRP | 0.639 |
| RRIRTRPPRLPRPRPRPILVPRP | -0.0468 |
| RRIRDRPPRLPRPRPRPNTLPRP | -0.269 |
| RRIRHRPPRLPRPRPRPSRLPRP | 0.39 |
| RRIRNRPPRLPRPRPRPSFLPRP | -0.473 |
| RRIRMRPPRLPRPRPRPKEGPRP | -0.01 |
| RRIRHRPPRLPRPRPRPLHYPRP | -0.284 |
| RRIRGRPPRLPRPRPRPQAMPRP | -0.0164 |
| RRIRKRPPRLPRPRPRPQFNPRP | -0.281 |
| RRIRRRPPRLPRPRPRPIHWPRP | -0.0227 |
| RRIRWRPPRLPRPRPRPNDFPRP | -0.0161 |
| RRIRIRPPRLPRPRPRPFMPPRP | -0.821 |
| RRIRARPPRLPRPRPRPINWPRP | 0.139 |
| RRIRCRPPRLPRPRPRPCDTPRP | -0.0925 |
| RRIRGRPPRLPRPRPRPNCDPRP | 0.382 |
| RRIRRRPPRLPRPRPRPPPCPRP | 0.864 |
